Measurements from patent US20060240001A1 (AGOURON PHARMACEUTICALS, published 2006).

T1: recombinant human E-cadherin (R&D Systems 648-EC-100) (human, UniProt P12830 155-707)
T1 construct: Bought protein
T1 sequence (looked up): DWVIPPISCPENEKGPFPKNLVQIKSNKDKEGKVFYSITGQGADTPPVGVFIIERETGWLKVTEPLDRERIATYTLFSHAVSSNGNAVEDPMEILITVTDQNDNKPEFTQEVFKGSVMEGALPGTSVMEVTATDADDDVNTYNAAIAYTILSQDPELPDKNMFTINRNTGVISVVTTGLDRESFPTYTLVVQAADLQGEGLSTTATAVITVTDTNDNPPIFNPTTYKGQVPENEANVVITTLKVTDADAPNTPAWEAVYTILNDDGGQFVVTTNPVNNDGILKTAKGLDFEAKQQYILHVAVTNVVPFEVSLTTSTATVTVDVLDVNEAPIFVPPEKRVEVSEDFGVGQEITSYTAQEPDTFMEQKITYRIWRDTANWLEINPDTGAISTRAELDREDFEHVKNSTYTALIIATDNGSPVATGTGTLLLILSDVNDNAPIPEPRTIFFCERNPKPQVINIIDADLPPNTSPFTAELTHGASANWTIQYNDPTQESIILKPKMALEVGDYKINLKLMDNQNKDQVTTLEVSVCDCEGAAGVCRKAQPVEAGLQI

T2: mouse P-cadherin/Fc fusion protein (mouse, UniProt P10287 100-647, limits assumed)
T2 construct: also called mCad/Fc; not shown: Fc part of the fusion protein
T2 sequence (looked up): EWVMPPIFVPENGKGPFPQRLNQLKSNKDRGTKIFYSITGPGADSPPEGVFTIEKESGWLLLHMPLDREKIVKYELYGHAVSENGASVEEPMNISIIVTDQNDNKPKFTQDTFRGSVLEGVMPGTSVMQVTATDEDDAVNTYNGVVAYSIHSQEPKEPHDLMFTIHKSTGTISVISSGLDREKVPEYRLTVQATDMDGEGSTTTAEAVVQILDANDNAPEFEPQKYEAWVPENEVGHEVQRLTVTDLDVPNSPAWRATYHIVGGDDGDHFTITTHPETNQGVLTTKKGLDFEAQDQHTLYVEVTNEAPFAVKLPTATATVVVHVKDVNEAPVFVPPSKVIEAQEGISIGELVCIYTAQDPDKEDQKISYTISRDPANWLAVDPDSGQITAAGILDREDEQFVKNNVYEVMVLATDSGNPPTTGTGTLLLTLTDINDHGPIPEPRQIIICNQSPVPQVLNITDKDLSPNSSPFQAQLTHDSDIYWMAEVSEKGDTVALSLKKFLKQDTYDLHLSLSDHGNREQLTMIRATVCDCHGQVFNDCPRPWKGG


Key:
[1] = target: T3, human P-cadherin on the surface of cells (human, UniProt P22223 108-829); test: cell-based or functional assay
[2] = target: T3, human P-cadherin on the surface of cells; test: cell-based or functional assay; remark: listed apart in the source
[3] = target: T3, human P-cadherin on the surface of cells; test: cell-based or functional assay; remark: listed apart in the source
[4] = target: T3, human P-cadherin on the surface of cells; test: epitope competition on A431 cells; competitor: biotinylated 129-1c4 IgG, DELFIA
[5] = target: T1, recombinant human E-cadherin (R&D …); test: ELISA on coated antigen, relative KD
[6] = target: T4, Recombinant human P-cadherin Fc (R&D Systems 861-PC-100) (human, UniProt P22223 108-654); test: ELISA on coated antigen, relative KD
T4 construct: also called recombinant human P-cadherin/Fc fusion protein; hCad/Fc; not shown: Fc part of the bought fusion protein

[7] = target: T3, human P-cadherin on the surface of cells; test: cell-based or functional assay; remark: listed apart in the source
[8] = target: T4, Recombinant human P-cadherin Fc (R&D …); test: ELISA; KD on E-cadherin over KD on P-cadherin
[9] = target: T3, human P-cadherin on the surface of cells; test: epitope competition on A431 cells; competitor: biotinylated 129-1c4 IgG at 3x KD, DELFIA
[10] = target: T2, mouse P-cadherin/Fc fusion protein; test: SPR (BIACORE 3000), mCad/Fc immobilised, scFv as analyte, 1:1 fit
[11] = target: T3, human P-cadherin on the surface of cells; test: cell-based or functional assay; remark: listed apart in the source
[12] = target: T4, Recombinant human P-cadherin Fc (R&D …); test: SPR (BIACORE 3000), hCad/Fc immobilised, scFv as analyte, 1:1 fit
[13] = target: T1, recombinant human E-cadherin (R&D …); test: ELISA on coated E-cadherin, IgG titrated from 50 nM down to 0.64 nM

Binder | SW480 Aggregation Assay Mean IC50 [1] [nM] | SW480 Spheroid Disruption Assay, Fold Increased Disruption vs Control at 5 nM [2] [fold] | Kd [5] [nM] | Kd [6] [nM] | A431 Adhesion Assay Mean IC50 (nM) (n = 3) [7] | KD(E)/KD(P) [8] | further results
129-1c4 (antibody, V domains shown, also called parent IgG) VH: not shown VL: QSALTQPASVSGSPGQSITISCTGTSNDVGAYNYVSWYQQHPGKAPKLILSEVNKRPSGVSNRFSGSKSGNTASLSISGLQAEDEADYYCSSFTSGSTFMLFGGGTKLTVL | 35 | 4 | – | – | – | – | IC50 in the A431 adhesion assay [3]: 1000 to 3000 nM; IC50 [4]: 29 nM
194-a02 (antibody, V domains shown, Tested as IgG converted from scFv) VH: not shown VL: QSALTQPASVSGSPGQSITISCTGTSNDVGAYNYVSWYQQHPGKAPKLILSEVNKRPSGVSNRFSGSKSGNTASLSISGLQAEDEADYYCSSFTSGLPWVLFGGGTKLTVL | 1.1 | 10 | 0.682 | 0.116 | 0.217 | 6 | –
196-d10 (antibody, V domains shown, Tested as IgG converted from scFv; also called 196-d10 IgG) VH: not shown VL: QSALTQPASVSGSPGQSITISCTGTSNDVGAYNYVSWYQQHPGKAPKLILSEVNKRPSGVSNRFSGSKSGNTASLSISGLQAEDEADYYCTSYTMGSTFMLFGGGTKLTVL | 1.5 | 10 | 0.063 | 0.045 | 0.08 | 1.4 | –
scFv variant of 129-1c4 with VH CDR3 SEQ ID NO: 207 and VL CDR3 SEQ ID NO: 291 (scFv, V domains shown, His-tagged purified scFv; also called 207 / 291) VH: not shown VL: QSALTQPASVSGSPGQSITISCTGTSNDVGAYNYVSWYQQHPGKAPKLILSEVNKRPSGVSNRFSGSKSGNTASLSISGLQAEDEADYYCSSFTSGSTFNLFGGGTKLTVL | – | – | – | – | – | – | IC50 [9]: 2.73 nM
194-e01 (antibody, V domains shown, Tested as IgG converted from scFv) VH: not shown VL: QSALTQPASVSGSPGQSITISCTGTSNDVGAYNYVSWYQQHPGKAPKLILSEVNKRPSGVSNRFSGSKSGNTASLSISGLQAEDEAGYYCTSYRAGSTFMLFGGGTKLTVL | 1.3 | 16 | 20.5 | 0.112 | 0.147 | 183 | –
scFv variant of 129-1c4 with VH CDR3 SEQ ID NO: 163 and VL CDR3 SEQ ID NO: 43 (scFv, V domains shown, His-tagged purified scFv; also called 163 / 43) VH: not shown VL: QSALTQPASVSGSPGQSITISCTGTSNDVGAYNYVSWYQQHPGKAPKLILSEVNKRPSGVSNRFSGSKSGNTASLSISGLQAEDEADYYCTSYTMGSTFMLFGGGTKLTVL | – | – | – | – | – | – | IC50 [9]: 2.45 nM
194-b09 scFv (scFv, V domains shown, Single chain Fv in the assay) VH: not shown VL: QSALTQPASVSGSPGQSITISCTGTSNDVGAYNYVSWYQQHPGKAPKLILSEVNKRPSGVSNRFSGSKSGNTASLSISGLQAEDEADYYCSSFTSGLPWVVFGGGTKLTVL | – | – | – | – | – | – | Kd [10]: 11 nM
195-a09 (antibody, V domains shown, Tested as IgG converted from scFv; also called 195-a09 IgG) VH: not shown VL: QSALTQPASVSGSPGQSITISCTGTSNDVGAYNYVSWYQQHPGKAPKLILSEVNKRPSGVSNRFSGSKSGNTASLSISGLQAEDEADYYCTSYTMGSTFMLFGGGTKLTVL | 1.7 | 10 | 11.5 | 0.12 | 0.114 | 96 | –
196-e06 (antibody, V domains shown, Tested as IgG converted from scFv; also called 196-e06 IgG) VH: EVQLLESGGGLVQPGGSLRLSCAASGFTFSSYAMSWVRQAPGKGLEWVSAISGSGGSTYYADSVKGRFAISRDNSKNTLYLQMNSLRAEDTAVYYCAGSRTVQFDPWGQGTMVTVSS VL: QSALTQPASVSGSPGQSITISCTGTSNDVGAYNYVSWYQQHPGKAPKLILSEVNKRPSGVSNRFSGSKSGNTASLSISGLQAEDEADYYCTSYTMGSTFMLFGGGTKLTVL | 1.9 | 10 | 0.187 | 0.062 | 0.117 | 3 | –
196-g03 scFv (scFv, V domains shown, Single chain Fv in the assay) VH: not shown VL: QSALTQPASVSGSPGQSITISCTGTSNDVGAYNYVSWYQQHPGKAPKLILSEVNKRPSGVSNRFSGSKSGNTASLSISGLQAEDEADYYCTSYTMGSTFMLFGGGTKLTVL | – | – | – | – | – | – | Kd [12]: 1.1 nM; koff [12]: 0.0007 s⁻¹; Kd [10]: 0.76 nM; koff [10]: 0.00047 s⁻¹
194-g09 scFv (scFv, V domains shown, Single chain Fv in the assay) VH: not shown VL: QSALTQPASVSGSPGQSITISCTGTSNDVGAYNYVSWYQRHPGKAPKLILSEVNKRPSGVSNRFSGSKSGNTASLSISGLQAEDEAEYYCSSYTMGSTFMLFGGGTKLTVL | – | – | – | – | – | – | Kd [12]: 2.6 nM; koff [12]: 0.0016 s⁻¹; Kd [10]: 1.8 nM; koff [10]: 0.00081 s⁻¹

Second part, led by results:

SW480 Aggregation Assay Mean IC50 [1] [nM] | SW480 Spheroid Disruption Assay, Fold Increased Disruption vs Control at 5 nM [2] [fold] | Kd [5] [nM] | Kd [6] [nM] | A431 Adhesion Assay Mean IC50 (nM) (n = 3) [7] | KD(E)/KD(P) [8] | Binder | further results
0.9 | 10 | 2.16 | 0.788 | – | 3 | g-194-b09 (antibody, V domains shown, Tested as IgG) VH: not shown VL: QSALTQPASVSGSPGQSITISCTGTSNDVGAYNYVSWYQQHPGKAPKLMISEVNKRPSGVSNRFSGSKSGNTASLTISGLQAEDEADYYCSSFTSGLPWVVFGGGTKLTVL | A431 Adhesion Assay Mean IC50 (nM) (n = 2) [11]: 0.77 nM
2.9 | 13 | 19.4 | 0.078 | 0.097 | 249 | 198-a09 (antibody, V domains shown, Tested as IgG converted from scFv; also called 198-a09 IgG) VH: not shown VL: QSALTQPASVSGPPGQSITISCTGTSNDVGAYNYVSWYQQHPGKAPKLILSEVNKRPSGVSNRFSGSKSGNTASLSISGLQAEDEADYYCTSYTMGSTFMLFGGGTKLTVL | –
– | – | 0.794 | 0.191 | – | 4 | g-194-e06 (antibody, V domains shown, Tested as IgG) VH: not shown VL: QSALTQPASVSGSPGQSITISCTGTSNDVGAYNYVSWYQQHPGKAPKLMISEVNKRPSGVSNRFSGSKSGNTASLTISGLQAEDEADYYCSSFTSGLPWVLFGGGTKLTVL | A431 Adhesion Assay Mean IC50 (nM) (n = 2) [11]: 0.77 nM
0.9 | 13 | 7.51 | 0.449 | – | 17 | g-196-g03 (antibody, V domains shown, Tested as IgG; also called germlined version of 196-g03) VH: not shown VL: QSALTQPASVSGSPGQSITISCTGTSNDVGAYNYVSWYQQHPGKAPKLMISEVNKRPSGVSNRFSGSKSGNTASLTISGLQAEDEADYYCTSYTMGSTFMLFGGGTKLTVL | A431 Adhesion Assay Mean IC50 (nM) (n = 2) [11]: 1.05 nM
2.6 | 14 | – | 2.6 | – | > 100 | g-194-g09 (antibody, V domains shown, Tested as IgG; also called germlined version of 194-g09) VH: not shown VL: QSALTQPASVSGSPGQSITISCTGTSNDVGAYNYVSWYQQHPGKAPKLMISEVNKRPSGVSNRFSGSKSGNTASLTISGLQAEDEADYYCSSYTMGSTFMLFGGGTKLTVL | A431 Adhesion Assay Mean IC50 (nM) (n = 2) [11]: 1 nM; binding result [13]: no binding (tested: 50 nM)
